Results as given in patent publication US20190338048A1.
Read-outs that look alike come from different tables or passages of the source. Values belong to the substance of their own block, whether it stands above or below them.

Columns and labels:
[1] = molecular target: SGN-CD19a kappa light chain L2 S121K_S176E_T178E (design 3954, Systems B and C); assay: SMCA: H1, L1, H2, L2 co-expressed, protein A, LC-MS
[2] = molecular target: SGN-CD19a kappa light chain L2 S121K_S176E_T178E (design 3954, Systems B and C); assay: as above; remark: listed apart in the source
[3] = molecular target: Design 3951 L1: CR8071 lambda light chain S122D_K129T_S176E_Y178E; assay: as above
[4] = molecular target: CR8071 lambda light chain L1 Y178K (design 3957, System C); assay: as above
[5] = molecular target: SGN-CD19a kappa light chain S121K_Q124E_V133D (L2 of design 3974, systems B and C); assay: as above
[6] = molecular target: SGN-CD19a kappa light chain S121K_Q124E_V133D (L2 of design 3974, systems B and C); assay: as above; remark: listed apart in the source
[7] = molecular target: Design 3931 L2: SGN-CD19a kappa light chain V133G_S176D; assay: as above
[8] = molecular target: Design 3931 L2: SGN-CD19a kappa light chain V133G_S176D; assay: as above; remark: listed apart in the source
[9] = molecular target: Design 3947 L1: CR8071 lambda light chain K129T_Y178D; assay: as above
[10] = molecular target: CR8071 lambda light chain S122D_K129T_S176E_Y178E (L1 of design 3967, system C); assay: as above
[11] = molecular target: SGN-CD19a kappa light chain L2 S121K_S131K_S176K (design 3951); assay: as above
[12] = molecular target: SGN-CD19a kappa light chain L2 Q124E_V133D_T178E (design 3957, Systems B and C); assay: as above
[13] = molecular target: SGN-CD19a kappa light chain L2 Q124E_V133D_T178E (design 3957, Systems B and C); assay: as above; remark: listed apart in the source
[14] = molecular target: CR8071 lambda light chain S122D_E124Q_T131R (L1 of design 3974, system C); assay: as above
[15] = molecular target: CR8071 lambda light chain L1 S122D_Y178K (design 3954, System C); assay: as above
[16] = molecular target: Design 3957 L2: SGN-CD19a kappa light chain Q124E_V133D_T178E; assay: as above
[17] = molecular target: Design 3957 L2: SGN-CD19a kappa light chain Q124E_V133D_T178E; assay: as above; remark: listed apart in the source
[18] = molecular target: CR8071 lambda light chain L1, design 4320 (T116F_K129T_V133D_S176F); assay: SMCA: H1,L1,H2,L2 co-expressed, protein A, LC-MS
[19] = molecular target: SGN-CD19a kappa light chain V133G_L135W_S176D_T180E (L2 of design 3987, systems B and C); assay: SMCA: H1, L1, H2, L2 co-expressed, protein A, LC-MS
[20] = molecular target: SGN-CD19a kappa light chain V133G_L135W_S176D_T180E (L2 of design 3987, systems B and C); assay: as above; remark: listed apart in the source
[21] = molecular target: Design 3954 L1: CR8071 lambda light chain S122D_Y178K; assay: as above
[22] = molecular target: SGN-CD19a kappa light chain L2 Q124E_V133D_L135W (design 3972, Systems B and C); assay: as above
[23] = molecular target: SGN-CD19a kappa light chain L2 Q124E_V133D_T180D (design 3971, Systems B and C); assay: as above
[24] = molecular target: SGN-CD19a kappa light chain L2 Q124E_V133D_L135W (design 3972, Systems B and C); assay: as above; remark: listed apart in the source
[25] = molecular target: SGN-CD19a kappa light chain L2 Q124E_V133D_T180D (design 3971, Systems B and C); assay: as above; remark: listed apart in the source
[26] = molecular target: SGN-CD19a kappa light chain S121K_V133I_S176D_T178E (L2 of design 3997, system B); assay: as above
[27] = molecular target: SGN-CD19a kappa light chain Q124E_V133D_L135A (L2 of design 3980, system B); assay: as above
[28] = molecular target: SGN-CD19a kappa light chain S121K_Q124R_T178R (L2 of design 3967, systems B and C); assay: as above
[29] = molecular target: SGN-CD19a kappa light chain S121K_Q124R_T178R (L2 of design 3967, systems B and C); assay: as above; remark: listed apart in the source
[30] = molecular target: CR8071 lambda light chain L1 S122D_K129T_S176E_Y178E (designs 3951 and 3967, System C); assay: as above
[31] = molecular target: CR8071 lambda light chain L1 S122D_K129T_S176E_Y178E (designs 3951 and 3967, System C); assay: as above; remark: listed apart in the source
[32] = molecular target: SGN-CD19a kappa light chain L2, design 4320 (Q124K_L135A_T178R); assay: SMCA: H1,L1,H2,L2 co-expressed, protein A, LC-MS
[33] = molecular target: SGN-CD19a kappa light chain Q124E_V133D_L135W (L2 of design 3972, systems B and C); assay: SMCA: H1, L1, H2, L2 co-expressed, protein A, LC-MS
[34] = molecular target: SGN-CD19a kappa light chain Q124E_V133D_T180D (L2 of design 3971, systems B and C); assay: as above
[35] = molecular target: SGN-CD19a kappa light chain Q124E_V133D_L135W (L2 of design 3972, systems B and C); assay: as above; remark: listed apart in the source
[36] = molecular target: SGN-CD19a kappa light chain Q124E_V133D_T180D (L2 of design 3971, systems B and C); assay: as above; remark: listed apart in the source

Substance: SGN-CD19a heavy chain H2 S188K_K228D (design 3954, Systems B and C)
% H2L2 Pairing [1]: 61.8%
Change in % H2L2 Pairing with respect to wild type [1]: 7.6%
% H2L2 Pairing [2]: 98.7%
Change in % H2L2 Pairing with respect to wild type [2]: 19.1%

Substance: CR8071 heavy chain H1 K145T_S188E (design 3957, System C)
% H1L1 Pairing [4]: 87.2%
Change in % H1L1 Pairing with respect to wild type [4]: 38.8%

Substance: SGN-CD19a heavy chain L143R_K228D (H2 of design 3974, systems B and C)
% H2L2 Pairing [5]: 92.6%
Change in % H2L2 Pairing with respect to wild type [5]: 38.4%
% H2L2 Pairing [6]: 99.8%
Change in % H2L2 Pairing with respect to wild type [6]: 20.2%

Substance: Design 3931 H2: SGN-CD19a heavy chain L124R
% H2L2 Pairing [7]: 99.5%
Change in % H2L2 Pairing with respect to wild type [7]: 19.9%
% H2L2 Pairing [8]: 83.6%
Change in % H2L2 Pairing with respect to wild type [8]: 29.4%

Substance: SGN-CD19a heavy chain H2 K145T_S186E_K228D (design 3951)
% H2L2 Pairing [11]: 97.1%
Change in % H2L2 Pairing with respect to wild type [11]: 25.8%

Substance: SGN-CD19a heavy chain H2 L143R_S188K (design 3957, Systems B and C)
% H2L2 Pairing [12]: 99.7%
Change in % H2L2 Pairing with respect to wild type [12]: 20.1%
% H2L2 Pairing [13]: 85.4%
Change in % H2L2 Pairing with respect to wild type [13]: 31.2%

Substance: Design 3957 H2: SGN-CD19a heavy chain L143R_S188K
% H2L2 Pairing [16]: 99.7%
Change in % H2L2 Pairing with respect to wild type [16]: 20.1%
% H2L2 Pairing [17]: 85.4%
Change in % H2L2 Pairing with respect to wild type [17]: 31.2%

Substance: SGN-CD19a heavy chain H2 L143R (designs 3971 and 3972, Systems B and C)
% H2L2 Pairing [22]: 99.7%
Change in % H2L2 Pairing with respect to wild type [22]: 45.5%
% H2L2 Pairing [23]: 99.3%
Change in % H2L2 Pairing with respect to wild type [23]: 45.1%
% H2L2 Pairing [24]: 99.8%
Change in % H2L2 Pairing with respect to wild type [24]: 20.2%
% H2L2 Pairing [25]: 99.8%
Change in % H2L2 Pairing with respect to wild type [25]: 20.2%

Substance: SGN-CD19a heavy chain S188K_K228D (H2 of design 3997, system B)
% H2L2 Pairing [26]: 53%
Change in % H2L2 Pairing with respect to wild type [26]: -1.2%

Substance: CR8071 heavy chain H1 A125R_S188K (designs 3951 and 3967, System C)
% H1L1 Pairing [30]: 97.5%
Change in % H1L1 Pairing with respect to wild type [30]: 29.4%
% H1L1 Pairing [31]: 96.7%
Change in % H1L1 Pairing with respect to wild type [31]: 28.6%

Substance: SGN-CD19a heavy chain H2, design 4320 (L143E_K145T_Q179E_V190F)
% H2L2 Pairing [32]: 81.4%
Change in % H2L2 Pairing with respect to wild type [32]: 21.5%

Results, then the substance that gave them:

% H1L1 Pairing [3]: 97.5%
Change in % H1L1 Pairing with respect to wild type [3]: 29.4%
Substance: Design 3951 H1: CR8071 heavy chain A125R_S188K

% H1L1 Pairing [9]: 91.3%
Change in % H1L1 Pairing with respect to wild type [9]: 23.2%
Substance: Design 3947 H1: CR8071 heavy chain S188K

% H1L1 Pairing [10]: 96.7%
Change in % H1L1 Pairing with respect to wild type [10]: 28.6%
Substance: CR8071 heavy chain A125R_S188K (H1 of design 3967, system C)

% H1L1 Pairing [14]: 59.9%
Change in % H1L1 Pairing with respect to wild type [14]: 11.5%
Substance: CR8071 heavy chain A125R_L143D_K145T (H1 of design 3974, system C)

% H1L1 Pairing [15]: 89%
Change in % H1L1 Pairing with respect to wild type [15]: 40.6%
Substance: CR8071 heavy chain H1 A125R_K145T_S188E (design 3954, System C)

% H1L1 Pairing [18]: 96.6%
Change in % H1L1 Pairing with respect to wild type [18]: 14.3%
Substance: CR8071 heavy chain H1, design 4320 (L143K_F174G)

% H2L2 Pairing [19]: 98.1%
Change in % H2L2 Pairing with respect to wild type [19]: 43.9%
% H2L2 Pairing [20]: 99.3%
Change in % H2L2 Pairing with respect to wild type [20]: 19.7%
Substance: SGN-CD19a heavy chain L124R_S186K (H2 of design 3987, systems B and C)

% H1L1 Pairing [21]: 89%
Change in % H1L1 Pairing with respect to wild type [21]: 40.6%
Substance: Design 3954 H1: CR8071 heavy chain A125R_K145T_S188E

% H2L2 Pairing [27]: 82.6%
Change in % H2L2 Pairing with respect to wild type [27]: 28.4%
Substance: SGN-CD19a heavy chain L143R_V190F (H2 of design 3980, system B)

% H2L2 Pairing [28]: 98.6%
Change in % H2L2 Pairing with respect to wild type [28]: 44.4%
% H2L2 Pairing [29]: 100%
Change in % H2L2 Pairing with respect to wild type [29]: 28.7%
Substance: SGN-CD19a heavy chain L143E_K145T_Q179E_K228D (H2 of design 3967, systems B and C)

% H2L2 Pairing [33]: 99.7%
Change in % H2L2 Pairing with respect to wild type [33]: 45.5%
% H2L2 Pairing [34]: 99.3%
Change in % H2L2 Pairing with respect to wild type [34]: 45.1%
% H2L2 Pairing [35]: 99.8%
Change in % H2L2 Pairing with respect to wild type [35]: 20.2%
% H2L2 Pairing [36]: 99.8%
Change in % H2L2 Pairing with respect to wild type [36]: 20.2%
Substance: SGN-CD19a heavy chain L143R (H2 of designs 3971 and 3972, systems B and C)
